# Results published in the MegaScale stability set (Tsuboyama et al. 2023).
# B1: r11_951_TrROS_Hall (parent)
# chain: KKKYVIKVYFEDTGKEVEIEAESKEEALEAAKRLAEELGLKIKKVEIYP
# Variants of: B1
# Experiment: folding stability dG (cDNA display proteolysis); higher = more stable
# Conditions: PBS, room temperature
row,Variant,folding stability dG [kcal/mol]
1,KKKYVIKVYFEDTGKEVEIEAESKEEALEAAKSLAEELGLKIKKVEIYP [R33S],4.2
2,KKKYVIKVYFEDTGKEVEIEAESKEEALEAAKTLAEELGLKIKKVEIYP [R33T],4.18
3,KKKYVIKVYFEDTGKEVEIEAESKEEALEAAKVLAEELGLKIKKVEIYP [R33V],4.22
4,KKKYVIKVYFEDTGKEVEIEAESKEEALEAAKWLAEELGLKIKKVEIYP [R33W],4.65
5,KKKYVIKVYFEDTGKEVEIEAESKEEALEAAKYLAEELGLKIKKVEIYP [R33Y],4.63
6,KKKYVIKVYFEDTGKEVEIEAESKEEALEAAKRAAEELGLKIKKVEIYP [L34A],4.16
7,KKKYVIKVYFEDTGKEVEIEAESKEEALEAAKRCAEELGLKIKKVEIYP [L34C],3.85
8,KKKYVIKVYFEDTGKEVEIEAESKEEALEAAKRDAEELGLKIKKVEIYP [L34D],2.95
9,KKKYVIKVYFEDTGKEVEIEAESKEEALEAAKREAEELGLKIKKVEIYP [L34E],3.68
10,KKKYVIKVYFEDTGKEVEIEAESKEEALEAAKRFAEELGLKIKKVEIYP [L34F],4.52
11,KKKYVIKVYFEDTGKEVEIEAESKEEALEAAKRGAEELGLKIKKVEIYP [L34G],3.15
12,KKKYVIKVYFEDTGKEVEIEAESKEEALEAAKRHAEELGLKIKKVEIYP [L34H],4.22
13,KKKYVIKVYFEDTGKEVEIEAESKEEALEAAKRIAEELGLKIKKVEIYP [L34I],4.27
14,KKKYVIKVYFEDTGKEVEIEAESKEEALEAAKRKAEELGLKIKKVEIYP [L34K],4.35
15,KKKYVIKVYFEDTGKEVEIEAESKEEALEAAKRMAEELGLKIKKVEIYP [L34M],4.55
16,KKKYVIKVYFEDTGKEVEIEAESKEEALEAAKRNAEELGLKIKKVEIYP [L34N],3.66
17,KKKYVIKVYFEDTGKEVEIEAESKEEALEAAKRPAEELGLKIKKVEIYP [L34P],1.34
18,KKKYVIKVYFEDTGKEVEIEAESKEEALEAAKRQAEELGLKIKKVEIYP [L34Q],3.99
19,KKKYVIKVYFEDTGKEVEIEAESKEEALEAAKRRAEELGLKIKKVEIYP [L34R],4.32
20,KKKYVIKVYFEDTGKEVEIEAESKEEALEAAKRSAEELGLKIKKVEIYP [L34S],4.01
21,KKKYVIKVYFEDTGKEVEIEAESKEEALEAAKRTAEELGLKIKKVEIYP [L34T],4.25
22,KKKYVIKVYFEDTGKEVEIEAESKEEALEAAKRVAEELGLKIKKVEIYP [L34V],4.51
23,KKKYVIKVYFEDTGKEVEIEAESKEEALEAAKRWAEELGLKIKKVEIYP [L34W],4.57
24,KKKYVIKVYFEDTGKEVEIEAESKEEALEAAKRYAEELGLKIKKVEIYP [L34Y],4.45
25,KKKYVIKVYFEDTGKEVEIEAESKEEALEAAKRLCEELGLKIKKVEIYP [A35C],4.08
26,KKKYVIKVYFEDTGKEVEIEAESKEEALEAAKRLDEELGLKIKKVEIYP [A35D],2.58
27,KKKYVIKVYFEDTGKEVEIEAESKEEALEAAKRLEEELGLKIKKVEIYP [A35E],4.05

row,Variant,folding stability dG [kcal/mol]
1,KKKYVIKVYFEDTGKEVEIEAESKEEALEAAKRLFEELGLKIKKVEIYP [A35F],4.13
2,KKKYVIKVYFEDTGKEVEIEAESKEEALEAAKRLGEELGLKIKKVEIYP [A35G],4.25
3,KKKYVIKVYFEDTGKEVEIEAESKEEALEAAKRLHEELGLKIKKVEIYP [A35H],3.63
4,KKKYVIKVYFEDTGKEVEIEAESKEEALEAAKRLIEELGLKIKKVEIYP [A35I],3.99
5,KKKYVIKVYFEDTGKEVEIEAESKEEALEAAKRLKEELGLKIKKVEIYP [A35K],3.58
6,KKKYVIKVYFEDTGKEVEIEAESKEEALEAAKRLLEELGLKIKKVEIYP [A35L],3.88
7,KKKYVIKVYFEDTGKEVEIEAESKEEALEAAKRLMEELGLKIKKVEIYP [A35M],3.97
8,KKKYVIKVYFEDTGKEVEIEAESKEEALEAAKRLNEELGLKIKKVEIYP [A35N],3.14
9,KKKYVIKVYFEDTGKEVEIEAESKEEALEAAKRLPEELGLKIKKVEIYP [A35P],2.83
10,KKKYVIKVYFEDTGKEVEIEAESKEEALEAAKRLQEELGLKIKKVEIYP [A35Q],3.9
11,KKKYVIKVYFEDTGKEVEIEAESKEEALEAAKRLREELGLKIKKVEIYP [A35R],3.55
12,KKKYVIKVYFEDTGKEVEIEAESKEEALEAAKRLSEELGLKIKKVEIYP [A35S],4.35
13,KKKYVIKVYFEDTGKEVEIEAESKEEALEAAKRLTEELGLKIKKVEIYP [A35T],3.84
14,KKKYVIKVYFEDTGKEVEIEAESKEEALEAAKRLVEELGLKIKKVEIYP [A35V],4.06
15,KKKYVIKVYFEDTGKEVEIEAESKEEALEAAKRLWEELGLKIKKVEIYP [A35W],4.13
16,KKKYVIKVYFEDTGKEVEIEAESKEEALEAAKRLYEELGLKIKKVEIYP [A35Y],3.78
17,KKKYVIKVYFEDTGKEVEIEAESKEEALEAAKRLAAELGLKIKKVEIYP [E36A],4.62
18,KKKYVIKVYFEDTGKEVEIEAESKEEALEAAKRLACELGLKIKKVEIYP [E36C],4.39
19,KKKYVIKVYFEDTGKEVEIEAESKEEALEAAKRLADELGLKIKKVEIYP [E36D],4.42
20,KKKYVIKVYFEDTGKEVEIEAESKEEALEAAKRLAFELGLKIKKVEIYP [E36F],4.76
21,KKKYVIKVYFEDTGKEVEIEAESKEEALEAAKRLAGELGLKIKKVEIYP [E36G],4.6
22,KKKYVIKVYFEDTGKEVEIEAESKEEALEAAKRLAHELGLKIKKVEIYP [E36H],4.56
23,KKKYVIKVYFEDTGKEVEIEAESKEEALEAAKRLAIELGLKIKKVEIYP [E36I],4.61
24,KKKYVIKVYFEDTGKEVEIEAESKEEALEAAKRLAKELGLKIKKVEIYP [E36K],4.54
25,KKKYVIKVYFEDTGKEVEIEAESKEEALEAAKRLALELGLKIKKVEIYP [E36L],4.68
26,KKKYVIKVYFEDTGKEVEIEAESKEEALEAAKRLAMELGLKIKKVEIYP [E36M],4.66
